The results in this text go back to US20210395344A1 (TWIST BIOSCIENCE, published 2021).

Where a chain is given by its changes, count along the chain named.

To fix the notation:
B1: SARS-CoV-2 variant 1-38 (antibody, V domains shown)
VH: EVQLLESGGGLVQPGGSLRLSCAASGITFSSYAMSWVRQAPGKGLEWVSGISGSGGSTYYADSVKGRFTISRDNSKNTLYLQMNSLRAEDTAVYYCAKHGSGTIFGVVIAKYYFDYWGQGTLVTVSS
VL: QSALTQPASVSGSPGQSITISCTGTSSDIGSYNLVSWYQQHPGKAPKLMIYEGTKRPSGVSNRFSGSKSGNTASLTISGLQAEDEADYYCCSYAGSRTYVFGGGTKLTVL
B2: SARS-CoV-2 variant 1-42 (antibody, V domains shown)
VH: B1 VH with I27V, G50A, S52T
VL: B1 VL with I29V, S31R, T54G, G95S, R97S, Y99L
B3: SARS-CoV-2 variant 1-10 (antibody, V domains shown)
VH: EVQLLESGGGLVQPGGSLRLSCAASGFTFSSYDMSWVRQAPGKGLEWVSVISGSGGSTYYADSVKGRFTISRDNSKNTLYLQMNSLRAEDTAVYYCAKGPLVGWYFDLWGQGTLVTVSS
VL: QSALTQPASVSGSPGQSITISCTGTSSNVGSYNLVSWYQQHPGKAPKLMIYEGTKRPSGVSNRFSGSKSGNTASLTISGLQAEDEADYYCCSYAGSSSFVVFGGGTKLTVL
B4: SARS-CoV-2 variant 1-30 (antibody, V domains shown)
VH: EVQLLESGGGLVQPGGSLRLSCAASGFTFSSYAMTWVRQAPGKGLEWVSAISGSGGSTFYADSVKGRFTISRDNSKNTLYLQMNSLRAEDTAVYYCTRPPYGDYGDYWGQGTLVTVSS
VL: B3 VL with S27R, N28D, S97R, S98T, F99P
B5: SARS-CoV-2 variant 1-8 (antibody, V domains shown)
VH: B3 VH
VL: B1 VL with S27N, I29V, T54S, T98Y, Y99V
B6: SARS-CoV-2 variant 1-26 (antibody, V domains shown)
VH: EVQLLESGGGLVQPGGSLRLSCAASGFTFSSYAISWVRQAPGKGLEWVSAISGSGYSTYYADSVKGRFTISRDNSKNTLYLQMNSLRAEDTAVYYCARGAPDSSGYYFQGEVYFDYWGQGTLVTVSS
VL: B3 VL with N28D, S31G, Y93F, A94V, G95R, S98A, F99H
B7: SARS-CoV-2 variant 1-2 (antibody, V domains shown)
VH: EVQLLESGGGLVQPGGSLRLSCAASGFTFSSQAMSWVRQAPGKGLEWVSAISGSGGGTYYADSVKGRFTISRDNSKNTLYLQMNSLRAEDTAVYYCAKDRRFGEFDPWGQGTLVTVSS
VL: B3 VL with N28G, T54I
B8: SARS-CoV-2 variant 1-27 (antibody, V domains shown)
VH: EVQLLESGGGLVQPGGSLRLSCAASGFTFSSYAMTWVRQAPGKGLEWVSAISGSGGGTYYADSVKGRFTISRDNSKNTLYLQMNSLRAEDTAVYYCASSSSWQFDYWGQGTLVTVSS
VL: B3 VL with N28Y, S31H, T54S, K55R, S97Y, S98T, F99H, V100Y
B9: SARS-CoV-2 variant 1-41 (antibody, V domains shown)
VH: B3 VH
VL: B1 VL
B10: SARS-CoV-2 variant 1-7 (antibody, V domains shown)
VH: B3 VH
VL: B3 VL with N28D, V29F, T54N, S98T
B11: SARS-CoV-2 variant 1-33 (antibody, V domains shown)
VH: B4 VH with T35I
VL: B3 VL with N28D, V35L, G53A, T54S, S97R, S98T, F99P
B12: SARS-CoV-2 variant 1-5 (antibody, V domains shown)
VH: B7 VH
VL: B3 VL with N28G, G53A, T54S, S97Y, S98T, V100A
B13: SARS-CoV-2 variant 1-31 (antibody, V domains shown)
VH: B4 VH with T35N
VL: B3 VL with N28D, S31K, T54S, K55Q, S97R, S98T, F99P
B14: SARS-CoV-2 variant 1-3 (antibody, V domains shown)
VH: B7 VH
VL: B3 VL with T25I, N28D
B15: SARS-CoV-2 variant 1-28 (antibody, V domains shown)
VH: B8 VH with A33G, T35S
VL: B3 VL with N28G, T54S, K55Q, S98T, F99H, V100Y
B16: SARS-CoV-2 variant 1-9 (antibody, V domains shown)
VH: B3 VH
VL: B3 VL with N28D, S31D, T54S, K55N
B17: SARS-CoV-2 variant 1-4 (antibody, V domains shown)
VH: B7 VH
VL: B3 VL with N28D, S31T, T54S, K55Q
B18: SARS-CoV-2 variant 1-32 (antibody, V domains shown)
VH: B4 VH with T35Y
VL: QSALTQPASVSGSPGQSITISCTGTSSDVGGYNLVSWYQQHPGKAPKLMIYEGNKRPSGVSNRFSGSKSGNTASLTISGLQAEDEADYYCCSYAGSSTFPVVFGGGTKLTVL
B19: SARS-CoV-2 variant 1-22 (antibody, V domains shown)
VH: EVQLLESGGGLVQPGGSLRLSCAASGFTFSSYAMNWVRQAPGKGLEWVSIISGSGGSTYYADSVKGRFTISRDNSKNTLYLQMNSLRAEDTAVYYCAREGYRDYLWYFDLWGQGTLVTVSS
VL: QSALTQPASVSGSPGQSITISCTGTSTDVGSYNLVSWYQQHPGKAPKLMIYEGSQRPSGVSNRFSGSKSGNTASLTISGLQAEDEADYYCCSYAGSSTVFGGGTKLTVL
B20: SARS-CoV-2 variant 1-21 (antibody, V domains shown)
VH: B19 VH with A33T, N35S
VL: QSALTQPASVSGSPGQSITISCTGTSSDVGSNNLVSWYQQHPGKAPKLMIYEGNKRPSGVSNRFSGSKSGNTASLTISGLQAEDEADYYCCSYAGSVVFGGGTKLTVL
B21: SARS-CoV-2 variant 1-23 (antibody, V domains shown)
VH: B19 VH with M34I, N35S
VL: B19 VL with T27N, S54N, Q55K, S97Y
B22: SARS-CoV-2 variant 1-24 (antibody, V domains shown)
VH: B19 VH
VL: B19 VL with T27S, S31Y, S54N, Q55K, S96G, T98V

In this assay the target is T1, Acro COVID S1 (S1N-C82E8) (SARS-CoV-2, UniProt P0DTC2 16-685).
T1 construct: domain: S1 (subunit 1)
Nature of the assay: phage ELISA. On the technique in general: An ELISA detects its analyte on a solid surface through an enzyme-linked reagent.
For B1, the “specificity ELISA, fold over background” value was found to be 1.1 fold over background.

Regarding B2, the “specificity ELISA, fold over background” value is 22.7 fold over background.

With B3, the “specificity ELISA, fold over background” value came to 17.4 fold over background.

On to B4, for which the “specificity ELISA, fold over background” value amounted to 16.8 fold over background.

Consider B5, for which the “specificity ELISA, fold over background” value came to 12 fold over background.

In the case of B6, the “specificity ELISA, fold over background” value amounted to 1.4 fold over background.

Regarding B7, the “specificity ELISA, fold over background” value was 1.8 fold over background.

With B8, the “specificity ELISA, fold over background” value was 1.5 fold over background.

B9: the “specificity ELISA, fold over background” value amounted to 4.5 fold over background.

In the case of B10, the “specificity ELISA, fold over background” value came to 6.8 fold over background.

With B11, the “specificity ELISA, fold over background” value turned out to be 7.1 fold over background.

For the molecule B12, the “specificity ELISA, fold over background” value amounted to 1.5 fold over background.

In the case of B13, the “specificity ELISA, fold over background” value amounted to 30.4 fold over background.

Consider B14, for which the “specificity ELISA, fold over background” value amounted to 1.6 fold over background.

Take B15: the “specificity ELISA, fold over background” value was 1 fold over background.

As to B16, the “specificity ELISA, fold over background” value was 10.7 fold over background.

On to B17, for which the “specificity ELISA, fold over background” value was 1 fold over background.

Turning to B18, the “specificity ELISA, fold over background” value turned out to be 11.5 fold over background.

B19: the “specificity ELISA, fold over background” value came to 32.7 fold over background.

On to B20, for which the “specificity ELISA, fold over background” value worked out at 19.5 fold over background.

On to B21, for which the “specificity ELISA, fold over background” value was 5.1 fold over background.

Take B22: the “specificity ELISA, fold over background” value was 12.9 fold over background.
